The results in this text go back to patent publication US20190064177A1, “INCORPORATING COMPETITIVE BINDING INFORMATION INTO MOLECULAR ARRAY ANALYSIS TO GENERATE FUNCTION NETWORKS OF INTERACTIONS” (ARIZONA BOARD OF REGENTS ON BEHALF OF ARIZONA STATE …, priority 2017, published 2019).

For assay [1], the target named is Diaphorase. Nature of the assay: peptide array, 10 uM labeled diaphorase, with FAD.
Assay [2] has as its target Diaphorase. Nature of the assay: peptide array, 1 uM labeled diaphorase, with FAD.
Assay [3] deals with Diaphorase. Nature of the assay: peptide array, 1 uM labeled diaphorase, no FAD.
Assay [4] addresses Diaphorase. Kind of assay: peptide array, 10 uM diaphorase, binding without FAD / with FAD.
Assay [5] deals with Diaphorase. Kind of assay: peptide array, 1 uM diaphorase, binding without FAD / with FAD.
Assay [6] has as its target Diaphorase. Kind of assay: peptide array, 10 uM labeled diaphorase, no FAD.

B1: … (peptide)
peptide: EGYANKLLALFSGSG
On to B1, for which the fluorescence with Diaphorase [1] came out at 10400; with Diaphorase [2], 1730; with Diaphorase [3], 1030; in the assay with Diaphorase [6], 6650. Besides, the noFAD/FAD in the assay with Diaphorase [4] amounted to 0.639; with Diaphorase [5] it was 0.599.

B2: … (peptide)
peptide: YSVDYWYQVDGSG
B2: the fluorescence stood at 19200 in the assay with Diaphorase [1], 10400 in the assay with Diaphorase [2], 1800 in the assay with Diaphorase [3] and 19800 in the assay with Diaphorase [6]. Also, the noFAD/FAD with Diaphorase [4] worked out at 1.03; in the assay with Diaphorase [5] it was 0.173.

B3: … (peptide)
peptide: YNRNAKSSGGSG
As for B3, the fluorescence with Diaphorase [1] amounted to 18600; in the assay with Diaphorase [2] it was 1550; with Diaphorase [3] it was 4010; in the assay with Diaphorase [6], 41300. Further, the figures for the noFAD/FAD with Diaphorase [4] and with Diaphorase [5] were 2.23 and 2.6, respectively.

B4: … (peptide)
peptide: LDRLGEYQFSGSG
For the molecule B4, the fluorescence was determined as 7140 with Diaphorase [1], 1160 in the assay with Diaphorase [2], 709 in the assay with Diaphorase [3] and 3000 with Diaphorase [6]. For the same molecule, the figures for the noFAD/FAD in the assay with Diaphorase [4] and with Diaphorase [5] were 0.419 and 0.609, respectively.

B5: … (peptide)
peptide: EAVQKLLFSGSG
On to B5, for which the fluorescence in the assay with Diaphorase [1] was 17700; in the assay with Diaphorase [2], 2420; with Diaphorase [3] it was 1460; with Diaphorase [6], 5390. Also, the noFAD/FAD with Diaphorase [4] was 0.304; in the assay with Diaphorase [5], 0.602.

B6: … (peptide)
peptide: ELFGALFKGGSG
B6: the fluorescence amounted to 25300 in the assay with Diaphorase [1], 3400 in the assay with Diaphorase [2], 2080 with Diaphorase [3] and 12900 with Diaphorase [6]. Besides, the figures for the noFAD/FAD in the assay with Diaphorase [4] and with Diaphorase [5] were 0.511 and 0.612, respectively.

B7: … (peptide)
peptide: NVSDLSQFYLSGSG
As for B7, the fluorescence with Diaphorase [1] stood at 27800; with Diaphorase [2] it was 3440; with Diaphorase [3] it was 2140; with Diaphorase [6] it was 6740. Further, the noFAD/FAD with Diaphorase [4] amounted to 0.242; with Diaphorase [5] it was 0.624.

B8: … (peptide)
peptide: RLQYLFKSDGSG
Regarding B8, the fluorescence was 30600 in the assay with Diaphorase [1], 1960 with Diaphorase [2], 5780 with Diaphorase [3] and 64300 with Diaphorase [6]. In addition, the noFAD/FAD amounted to 2.1 in the assay with Diaphorase [4] and 2.94 in the assay with Diaphorase [5].

B9: … (peptide)
peptide: FQFGKVVSDGSG
As to B9, the fluorescence was 20200 with Diaphorase [1], 2470 with Diaphorase [2], 1570 with Diaphorase [3] and 12700 with Diaphorase [6]. The noFAD/FAD was determined as 0.631 with Diaphorase [4] and 0.637 with Diaphorase [5].

B10: … (peptide)
peptide: AFYGLELGGSG
B10: the fluorescence in the assay with Diaphorase [1] was determined as 36700; with Diaphorase [2], 4180; in the assay with Diaphorase [3], 2260; with Diaphorase [6], 16500. The results for the noFAD/FAD with Diaphorase [4] and in the assay with Diaphorase [5] were 0.45 and 0.541, respectively.

B11: … (peptide)
peptide: SVLEGYQAVFGGSG
For the molecule B11, the fluorescence came out at 21500 with Diaphorase [1], 2660 with Diaphorase [2], 1340 in the assay with Diaphorase [3] and 6070 with Diaphorase [6]. Besides, the noFAD/FAD with Diaphorase [4] was 0.282; in the assay with Diaphorase [5], 0.503.

B12: … (peptide)
peptide: LLGFLGGSG
Regarding B12, the fluorescence came to 40300 in the assay with Diaphorase [1], 4140 in the assay with Diaphorase [2], 2320 with Diaphorase [3] and 26300 with Diaphorase [6]. Besides, the noFAD/FAD in the assay with Diaphorase [4] worked out at 0.652; with Diaphorase [5] it was 0.559.

B13: … (peptide)
peptide: KEAPGPRFGGSG
Regarding B13, the fluorescence came out at 5470 with Diaphorase [1], 8280 in the assay with Diaphorase [2], 1070 with Diaphorase [3] and 5610 with Diaphorase [6]. Moreover, the noFAD/FAD is 1.03 with Diaphorase [4] and 0.129 with Diaphorase [5].

B14: … (peptide)
peptide: YVWGLELSGGSG
With B14, the fluorescence in the assay with Diaphorase [1] came to 36300; with Diaphorase [2], 4690; with Diaphorase [3] it was 2610; with Diaphorase [6], 17300. Also, the noFAD/FAD with Diaphorase [4] was 0.476; with Diaphorase [5] it was 0.556.

B15: … (peptide)
peptide: VVQALFDGSG
For B15, the fluorescence was found to be 21200 with Diaphorase [1], 2300 with Diaphorase [2], 1470 with Diaphorase [3] and 9480 with Diaphorase [6]. The noFAD/FAD in the assay with Diaphorase [4] was found to be 0.448; with Diaphorase [5], 0.637.

B16: … (peptide)
peptide: KNRPYNKDLEDGSG
For the molecule B16, the fluorescence came out at 2590 in the assay with Diaphorase [1], 5150 with Diaphorase [2], 733 in the assay with Diaphorase [3] and 2520 in the assay with Diaphorase [6]. Besides, the noFAD/FAD in the assay with Diaphorase [4] was 0.974; with Diaphorase [5], 0.142.

B17: … (peptide)
peptide: RSHPKHNVGSG
Regarding B17, the fluorescence turned out to be 12200 with Diaphorase [1], 3880 with Diaphorase [2], 1950 with Diaphorase [3] and 17000 with Diaphorase [6]. Besides, the figures for the noFAD/FAD in the assay with Diaphorase [4] and with Diaphorase [5] were 1.39 and 0.504, respectively.

B18: … (peptide)
peptide: VLSLNQVYSEGSG
Regarding B18, the fluorescence was 21800 with Diaphorase [1], 2710 with Diaphorase [2], 1670 in the assay with Diaphorase [3] and 9850 in the assay with Diaphorase [6]. Besides, the noFAD/FAD worked out at 0.452 with Diaphorase [4] and 0.619 in the assay with Diaphorase [5].

B19: … (peptide)
peptide: VERASYNLDGSG
With B19, the fluorescence was 3370 with Diaphorase [1], 2240 with Diaphorase [2], 759 with Diaphorase [3] and 2900 with Diaphorase [6]. In addition, the noFAD/FAD was found to be 0.86 in the assay with Diaphorase [4] and 0.339 in the assay with Diaphorase [5].

B20: … (peptide)
peptide: LKQLFLEGGSG
B20: the fluorescence with Diaphorase [1] is 23500; in the assay with Diaphorase [2], 2470; with Diaphorase [3], 1560; with Diaphorase [6], 8700. Besides, the values for the noFAD/FAD with Diaphorase [4] and in the assay with Diaphorase [5] were 0.369 and 0.63, respectively.

B21: … (peptide)
peptide: VKDGANKHYWRVSGSG
On to B21, for which the fluorescence in the assay with Diaphorase [1] stood at 17800; in the assay with Diaphorase [2], 12300; with Diaphorase [3] it was 2220; with Diaphorase [6] it was 20400. In addition, the noFAD/FAD with Diaphorase [4] came out at 1.14; with Diaphorase [5], 0.18.

B22: … (peptide)
peptide: YSALFGLQEDGSG
Consider B22, for which the fluorescence with Diaphorase [1] was 16900; in the assay with Diaphorase [2], 2100; with Diaphorase [3] it was 1230; with Diaphorase [6] it was 8530. In addition, the figures for the noFAD/FAD in the assay with Diaphorase [4] and with Diaphorase [5] were 0.506 and 0.583, respectively.

B23: … (peptide)
peptide: RPLQVQRGGS
As to B23, the fluorescence with Diaphorase [1] is 41100; in the assay with Diaphorase [2] it was 14400; with Diaphorase [3], 5410; with Diaphorase [6] it was 53200. The noFAD/FAD in the assay with Diaphorase [4] was 1.3; with Diaphorase [5] it was 0.375.

B24: … (peptide)
peptide: FGKLYQLYNDGSG
B24: the fluorescence with Diaphorase [1] amounted to 34200; in the assay with Diaphorase [2], 3050; with Diaphorase [3], 1910; with Diaphorase [6], 15700. Also, the noFAD/FAD in the assay with Diaphorase [4] was 0.46; with Diaphorase [5], 0.627.

B25: … (peptide)
peptide: DLDKAFGGSG
As for B25, the fluorescence with Diaphorase [1] is 2140; with Diaphorase [2] it was 2050; in the assay with Diaphorase [3], 607; in the assay with Diaphorase [6], 1850. The figures for the noFAD/FAD in the assay with Diaphorase [4] and with Diaphorase [5] were 0.865 and 0.296, respectively.

B26: … (peptide)
peptide: EDEGLSKFEGGSG
As for B26, the fluorescence in the assay with Diaphorase [1] was determined as 1380; with Diaphorase [2], 4170; with Diaphorase [3], 561; with Diaphorase [6], 1220. The noFAD/FAD with Diaphorase [4] turned out to be 0.885; in the assay with Diaphorase [5], 0.135.

B27: … (peptide)
peptide: QLLQLLFGGSG
As to B27, the fluorescence came to 53400 with Diaphorase [1], 6310 in the assay with Diaphorase [2], 3230 with Diaphorase [3] and 19500 in the assay with Diaphorase [6]. The noFAD/FAD in the assay with Diaphorase [4] is 0.366; in the assay with Diaphorase [5], 0.511.

B28: … (peptide)
peptide: LAKQNRVEDGSG
Consider B28, for which the fluorescence was determined as 3700 with Diaphorase [1], 1440 in the assay with Diaphorase [2], 770 with Diaphorase [3] and 2950 with Diaphorase [6]. For the same molecule, the noFAD/FAD with Diaphorase [4] came to 0.797; with Diaphorase [5] it was 0.537.
